How the values were obtained:
[1] = target: recombinant His-tagged HIV-1 gp120 Q769.h5 (Clade A) (HIV-1 strain Q769.h5)
[2] = target: recombinant His-tagged HIV-1 gp120 Q769.h5 (Clade A) (HIV-1 strain Q769.h5); experiment: SPR, His-tagged gp120 on NTA chip (FIG. 7)

Substance | Kd [1] [nM] | fold increase in affinity compared to AH [2] [fold]
actinohivin (AH), wild type (from UniProt Q9KWN0 47-160) | 29.6 | 
AvFc lectibody (Avaren fused via a linker to the Fc region of human IgG1) (Fc fusion) | 4.2 | 10

Reference: US20230174595A1
